Test: In vivo biodistribution after intravenous administration (IVIS)
Design: species or system C57BL/6 mice
Settings: 5 min (0.08 hour) after administration
Procedure: (FIG. 3A) IVIS images of excised mouse lungs 5 min (0.08 hours) after the administration of OVA protein only and OVA/Erythrocyteplex. […] OVA was used for the fluorescence signal. (FIG. 3B) Biodistribution of OVA only and OVA/Erythrocyteplex 5 min after intravenous (IV) administration. (FIG. 3C) Biodistribution of OVA only and OVA/Erythrocyteplex 6 hours after IV administration. (FIG. 3D) Biodistribution of OVA only and OVA/Erythrocyteplex 24 hours after IV administration. (FIG. 3E) Lung to liver ratio of OVA delivered by the control counterpart and OVA/Erythrocyteplex throughout the entire measurement window. (FIG. 3F) Remaining OVA delivered by Erythrocyteplex through the time after 24 hours post-injection. […] Variation is represented by SE (error bars) from three independent replicates for all data points. (FIG. 3G) Confocal florescence microscopy images of lung vascular capillary sections 5 min. […]
Female 50-56 days old C57BL/6 mice (n=3-6 per group) were administered intravenously using a with OVA-Erythrocyteplex coated with 30 ug/mL OVA. […] Each organ was placed in a 6 well tissue culture plate (Falcon); blood (50 μL) was placed in a heparinized microcapillary tube (Drummond Scientific) and far red fluorescence signal for each organ was imaged using Perkin Elmer IVIS small animal imaging system. Far red signals were quantified using LivingImage software.

B1: free OVA: free ovalbumin protein, control counterpart (protein, UniProt P01012 2-386, looked up)
Ovalbumin: GSIGAASMEFCFDVFKELKVHHANENIFYCPIAIMSALAMVYLGAKDSTRTQINKVVRFDKLPGFGDSIEAQCGTSVNVHSSLRDILNQITKPNDVYSFSLASRLYAEERYPILPEYLQCVKELYRGGLEPINFQTAADQARELINSWVESQTNGIIRNVLQPSSVDSQTAMVLVNAIVFKGLWEKAFKDEDTQAMPFRVTEQESKPVQMMYQIGLFRVASMASEKMKILELPFASGTMSMLVLLPDEVSGLEQLESIINFEKLTEWTSSNVMEERKIKVYLPRMKMEEKYNLTSVLMAMGITDVFSSSANLSGISSAESLKISQAVHAAHAEINEAGREVVGSAEAGVDAASVSEEFRADHPFLFCIKHIATNAVLFFGRCVSP
signal in the liver: strong signal intensities in the liver

Source: patent publication US12692514B2, “Living cells engineered with polyphenol-functionalized biologically active nanocomplexes” (PRESIDENT AND FELLOWS OF HARVARD COLLEGE, priority 2020, dated 2026)
